Measured values taken from patent US20120208867, “HMGB1 BINDING NUCLEIC ACID MOLECULE AND APPLICATIONS THEREOF” (published 2012).

Columns and labels:
His-tagged HMGB1 [1] = biological target: T1, His-tagged HMGB1 (UniProt P09429 P09429:1-215); test: SPR; superior to R8c6_1; 635 nM protein; settings: tags: N-terminal His-tag
Method: (§1) First, a sensor chip (trade name: Sensor Chip SA, manufactured by GE Heathcare) specially made for a BIACORE was set on the aforementioned BLACORE (registered trademark) X. Biotinylate deoxythymidine (5 μmol/L) was injected into the flow cell 2 of the aforementioned sensor chip using a running buffer and subjected to binding until the signal intensity (RU: resonance unit) reached about 1000 RU. For the aforementioned biotinylated deoxythymidine, 20-base-long deoxythymidine in which the 5′ end was biotinylated was used. Then, 10 μg/mL of an RNA aptamer was injected at a flow rate of 20 μL/min for 1 min into the aforementioned flow cells 1 and 2 of the aforementioned chip using a running buffer and subjected to binding until the signal intensity reached about 1000 RU. Next, 675 nmol/L of the aforementioned His-tag-added HMGB1 was injected at a flow rate of 20 μL/min for 30 sec using the aforementioned running buffer, and under the same conditions the aforementioned running buffer was allowed to flow continuously for washing. Simultaneously with the injection of the aforementioned His-tag-added HMGB1 and washing with the aforementioned running buffer, signal intensity was measured. The aforementioned running buffer was composed of 20 mmol/L of HEPES, 500 mmol/L of NaCl, 0.1 mmol/L of MgCl₂, and 0.1% Triton X-100 (registered trademark), with the pH thereof being 7.2. As a blocking agent for suppressing nonspecific binding, tRNA was used in a concentration of 1 mg/mL. In a comparative example, signal intensity was measured in the same manner except that the aforementioned comparative example RNA was used in place of the aforementioned example RNA aptamers.
An analysis of ability to bind to His-tag-added HMGB1 was carried out in the same manner as in (2) above of the aforementioned Example 1 except that the aforementioned RNA aptamers were used, the concentration of the aforementioned His-tag-added HMGB1 was 635 nmol/L, and the injection time of the aforementioned His-tag-added HMGB1 was 60 seconds. Also, an analysis was carried on the aforementioned 40N as a comparative example in the same manner.

His-tagged HMGB1 [2] = biological target: T1, His-tagged HMGB1; test: SPR; physiological 150 mM NaCl; settings: tags: N-terminal His-tag
Method: as §1
The ability of each of the aforementioned RNA aptamers to bind to HMGB1 under physiological conditions was examined. An analysis of binding ability was carried out in the same manner as in (2) above except that the 500 mmol/L NaCl concentration of the aforementioned running buffer was changed so as to conform to the physiology condition of a living body of 150 mmol/L, and the injection time of the aforementioned His-tag-added HMGB1 was 45 sec.

HMGB1 (no His-tag) = HMGB1 (no His-tag) (UniProt P09429 P09429:1-215); test: SPR; 1 uM untagged HMGB1, 500 mM NaCl; settings: tags: none
Method: as §1
The ability of each of the aforementioned RNA aptamers to bind to HMGB1 in which no His-tag was added to the N-terminus was examined. An analysis of the aforementioned binding ability was carried out in the same manner as in (2) above except that 1 μmol/L of the aforementioned HMGB1 was used in place of the aforementioned His-tag-added HGB1 and the injection time of the aforementioned HMGB1 was 60 sec.

His-tagged MIF = His-tagged MIF (UniProt P14174 P14174:2-115); test: SPR; 300 nM His-MIF specificity control
Method: as §1
The ability of each of the aforementioned RNA aptamers to bind to His-tag was examined. An analysis of the aforementioned binding ability was carried out in the same manner as in (2) above except that 300 nmol/L of the aforementioned His-tag-added MIF protein was used in place of the aforementioned His-tag-added HMGB1.

His-tagged HMGB1 [3] = biological target: T1, His-tagged HMGB1; test: SPR; 200 nM protein, 150 mM NaCl; above unmodified 40N; settings: tags: N-terminal His-tag
Method: as §1
An analysis of ability to bind to the aforementioned His-tag-added HMGB1 (manufactured by Sigma) was carried out in the same manner as in (2) above of the aforementioned Example 1 except that the aforementioned fluorinated RNA aptamers were used, the concentration of the aforementioned His-tag-added HMGB1 was 200 nmol/L, the concentration of NaCl in the aforementioned running buffer was 150 mmol/L, and the injection time of the aforementioned His-tag-added HMGB1 was 60 seconds. Also, an analysis was carried out in the same manner on unmodified R8c6_{—}1 that was not fluorinated.

His-tagged MIF, sequence (P14174 2-115, one chain of several): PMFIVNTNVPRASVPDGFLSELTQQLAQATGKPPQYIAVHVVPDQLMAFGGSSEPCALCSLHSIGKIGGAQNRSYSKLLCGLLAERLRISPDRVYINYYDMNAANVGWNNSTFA
T1 sequence (P09429 whole entry, one chain of several): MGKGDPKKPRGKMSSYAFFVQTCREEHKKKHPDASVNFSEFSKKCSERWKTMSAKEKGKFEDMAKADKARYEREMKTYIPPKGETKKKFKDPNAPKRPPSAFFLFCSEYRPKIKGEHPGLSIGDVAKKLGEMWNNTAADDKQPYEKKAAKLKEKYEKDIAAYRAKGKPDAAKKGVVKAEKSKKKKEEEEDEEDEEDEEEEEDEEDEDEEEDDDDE
HMGB1 (no His-tag), sequence (P09429 whole entry, one chain of several): as above

B1: R8c6_1-20 (ssRNA)
RNA: GGGUACAGUAAGACACGUAGCACCAGUCUGACGUUUGUCGUCAGUGCCUGGACGUGCAGU
B1: binds (His-tagged HMGB1 [1]).

B2: #80 (ssRNA)
RNA: GGGACGCUCACGUACGCUCACAUCUGAAUUUAAGCCACGUAGAACCAGGCCCUCCACGCGUCAGUGCCUGGACGUGCAGU
B2: binds (His-tagged HMGB1 [2]); binds (HMGB1 (no His-tag)); no binding (His-tagged MIF).

B3: #34 (ssRNA)
RNA: GGGACGCUCACGUACGCUCAAUUCACCUCAGCAUGUCCGCUUGUGACGAUGGAGGCACCUUCAGUGCCUGGACGUGCAGU
B3: binds (His-tagged HMGB1 [2]); binds (HMGB1 (no His-tag)); no binding (His-tagged MIF).

B4: #08 (ssRNA)
RNA: GGGACGCUCACGUACGCUCAAGUCCCUUGACACGUCCGUUUUCUAACUGGAAUAGAGGCCUCAGUGCCUGGACGUGCAGU
B4: binds (His-tagged HMGB1 [2]); binds (HMGB1 (no His-tag)); no binding (His-tagged MIF).

B5: #47 (ssRNA)
RNA: GGGACGCUCACGUACGCUCAAAAAACUACUGCCGAACCGUAAGACACGUAGAACCAGGCAUCAGUGCCUGGACGUGCAGU
B5: binds (His-tagged HMGB1 [2]); binds (HMGB1 (no His-tag)); no binding (His-tagged MIF).

B6: #10 (ssRNA)
RNA: GGGACGCUCACGUACGCUCAUAGUCAAGGUGAAAACCCCCAUAGAGACUUCAGUGCCUGGACGUGCAGU
B6: binds (His-tagged HMGB1 [2]); binds (HMGB1 (no His-tag)); no binding (His-tagged MIF).

B7: R8c6_1-15 (ssRNA)
RNA: GGGCAGAGUACAGUAAGACACGUAGCACCAGUCUGACGUUUGUCGUCAGUGCCUGGACGUGCAGU
B7: binds (His-tagged HMGB1 [1]).

B8: #06 (ssRNA)
RNA: GGGACGCUCACGUACGCUCAUACACUGCACGCUCCGCUUUGAACAUCAAUGGAGGCCCUGUCAGUGCCUGGACGUGCAGU
B8: binds (His-tagged HMGB1 [2]); binds (HMGB1 (no His-tag)); no binding (His-tagged MIF).

B9: 2'F-CU-R4_9068 (ssRNA)
RNA: GGGACGCUCACGUACGCUCAUGAUAUUUAAAUUUGGCCGCGUUUAAAACAUCCCCUACGAUCAGUGCCUGGACGUGCAGU
modifications: 2'-F on all C and U
B9: binds (His-tagged HMGB1 [3]).

B10: 2'F-U-R4_9068 (ssRNA)
RNA: GGGACGCUCACGUACGCUCAUGAUAUUUAAAUUUGGCCGCGUUUAAAACAUCCCCUACGAUCAGUGCCUGGACGUGCAGU
modifications: 2'-F on all U
B10: binds (His-tagged HMGB1 [3]).

B11: 2'F-C-R4_9068 (ssRNA)
RNA: GGGACGCUCACGUACGCUCAUGAUAUUUAAAUUUGGCCGCGUUUAAAACAUCCCCUACGAUCAGUGCCUGGACGUGCAGU
modifications: 2'-F on all C
B11: binds (His-tagged HMGB1 [3]).

B12: R8c6_1-21 (ssRNA)
RNA: GGGACAGUAAGACACGUAGCACCAGUCUGACGUUUGUCGUCAGUGCCUGGACGUGCAGU
B12: binds (His-tagged HMGB1 [1]).

B13: #36 (ssRNA)
RNA: GGGACGCUCACGUACGCUCACCUAGCACGUCCGUUUCUGGAUCUGUCAGUUAGAGGCCUAUCAGUGCCUGGACGUGCAGU
B13: binds (His-tagged HMGB1 [2]); binds (HMGB1 (no His-tag)); no binding (His-tagged MIF).

B14: R8c6_1-18 (ssRNA)
RNA: GGGAGUACAGUAAGACACGUAGCACCAGUCUGACGUUUGUCGUCAGUGCCUGGACGUGCAGU
B14: binds (His-tagged HMGB1 [1]).
